Laboratory results from US11155602B2, “Polypeptides targeting HIV fusion” (priority 2015, dated 2021).

System: NL-Rluc virus
Assay: Combinectin potency assay: antiviral EC50, NL-Rluc virus in MT-2 cells, luciferase readout
Assay type: cell-based, HIV-1
Procedure, shortened: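 MT-2 cells infected with replication-competent NL-Rluc HIV (nef replaced by Renilla luciferase) at MOI 0.01 for 1 h, then added to threefold-diluted peptides (11 concentrations, triplicate). After 4–5 days, luciferase measured by Dual Luciferase; EC50 relative to no-peptide wells.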

[1] = Anti-N17 Adnectin - HIV fusion peptide inhibitor Combinectin, Table 4

Molecule | EC50 (Anti-N17 Adnectin, Table 3) [nM] | EC50 [1] [nM]
356 (protein, Adnectin) MGHHHHHHGGSVSDVPRDLEVVAATPTSLLISWEYKVHPYRYYRITYGETGGNSPVQEFTVPSVLSTAELSGLKPGVDYTITVYAVTYGDDSAPISINYRTEID | 31 | 
357 (protein, Adnectin) MGHHHHHHGGSVSDVPRDLEVVAATPTSLLISWEYKVHPYRYYRITYGETGGNSPVQEFTVPSVLSTATISGLKPGVDYTITVYAVTYGDLSAPISINYRTEID | 178 | 
358 (protein, Adnectin) MGHHHHHHGGSVSDVPRDLEVVAATPTSLLISWEYKVHPYRYYRITYGETGGNSPVQEFTVPSVLSTATISGLKPGVDYTITVYAVTYGDDSTPISINYRTEID | > 1000 | 
359 (protein, Adnectin) MGHHHHHHGGSVSDVPRDLEVVAATPTSLLISWEYKVSAYRYYRITYGETGGNSPVQEFTVPSVLSTATISGLKPGVDYTITVYAVTYGDDSAPISINYRTEID | > 1000 | 
360 (protein, Adnectin) MGHHHHHHGGSVSDVPRDLEVVAATPTSLLISWEYKVTGYRYYRITYGETGGNSPVQEFTVPSVLSTATISGLKPGVDYTITVYAVTYGDDSAPISINYRTEID | > 1000 | 
138 (protein, Adnectin) MGVSDVPRDLEVVAATPTSLLISWHYPFEGYVTYYRITYGETGGNSHVQEFTVPVGYTTATISGLKPGVDYTITVYAVTSSKGYVYFPISINYRTEIDKPSQHHHHHH | 3300 | 
361 (protein, Adnectin) MGHHHHHHGGSVSDVPRDLEVVAATPTSLLISWEYKVYHGRYYRITYGETGGNSPVQEFTVPSVLSTATISGLKPGVDYTITVYAVTYGDDSAPISINYRTEID | > 1000 | 
362 (protein, Adnectin) MGHHHHHHGGSVSDVPRDLEVVAATPTSLLISWEYKVHPYRYYRITYGETGGNSPVQEFTVPSVLSTAKLSGLKPGVDYTITVYAVTYGDDSAPISINYRTEID | 121 | 
363 (protein, Adnectin) MGHHHHHHGGSVSDVPRDLEVVAATPTSLLISWEYKVHPYRYYRITYGETGGNSPVQEFTVPSVLSTATISGLKPGVDYTITVYAVTYGNDSAPISINYRTEID | 130 | 
428 (protein, Anti-N17 Adnectin - HIV fusion peptide inhibitor Combinectin) MGHHHHHHTSGVSDVPRDLEVVAATPTSLLISWDAPAVTVGWYHIGYNVEGEPASYQYFRVPGSKSTATISGLKPGVEYMIFVNAVTGSGAREEFSLPISINYRTEIDGGGGSGGGGSGGGGSGGGGSEYEARIEALIRAAQEQQEKNEAALRELDKWTGVWGNYEKV |  | 50
411 (protein, Anti-N17 Adnectin - HIV fusion peptide inhibitor Combinectin) MGHHHHHHGGSVSDVPRDLEVVAATPTSLLISWEYKVNAYRYYRITYGETGGNSPVQEFTVPSVLSTATISGLKPGVDYTITVYAVTYGVDSDPISINYRTEIDGGGGSGGGGSGGGGSGGGGTIAEYAARIEALIRAAQEQQEKNEAALRELYKWAS |  | 4340
412 (protein, Anti-N17 Adnectin - HIV fusion peptide inhibitor Combinectin) MGHHHHHHGGSVSDVPRDLEVVAATPTSLLISWEYKVNAYRYYRITYGETGGNSPVQEFTVPSVLSTATISGLKPGVDYTITVYAVTYGVDSDPISINYRTEIDGGGGSGGGGSGGGGSGGGGSEYEARIEALIRAAQEQQEKNEAALRELYKWAS |  | 2980
413 (protein, Anti-N17 Adnectin - HIV fusion peptide inhibitor Combinectin) MGHHHHHHGVSDVPRDLEVVAATPTSLLISWKYKVHPYRYYRITYGETGGNSPVQEFTVPSVLSTATISGLKPGVDYTITVYAVTYGVNSLPISINYRTEIDGGGGSGGGGSGGGGSGGGGTEYEARIEALIRAAQEQQEKNEAALRELKEWASIWN |  | 6
414 (protein, Anti-N17 Adnectin - HIV fusion peptide inhibitor Combinectin) MGHHHHHHTSGVSDVPRDLEVVAATPTSLLISWDAPAVTVGWYHIGYNVEGEPASYQYFRVPGSKSTATISGLKPGVEYMIFVNAVTGSGAREEFSLPISINYRTEIDGGGGSGGGGSGGGGSGGGGSEYEARIEALIRAAQEQQEKNEAALRELDKWTGVWGNYEKV |  | 4
415 (protein, Anti-N17 Adnectin - HIV fusion peptide inhibitor Combinectin) MGHHHHHHGVSDVPRDLEVVAATPTSLLISWDAPAVTVRYYRITYGETGGNSPVQEFTVPGSKSTATISGLKPGVDYTITVYAVTGRGESPASSKPISINYRTEIDGGGGSGGGGSGGGGSGGGGSRIEALIRAAQEQQEKNEAALRELFKWAS |  | > 1000
416 (protein, Anti-N17 Adnectin - HIV fusion peptide inhibitor Combinectin) MGHHHHHHGVSDVPRDLEVVAATPTSLLISWDAPAVTVRYYRITYGETGGNSPVQEFTVPGSKSTATISGLKPGVDYTITVYAVTGRGESPASSKPISINYRTEIDGGGGSGGGGSGGGGSGGGGSRIEALIRAAQEQQQKNEAALRELDKWAS |  | > 1000
417 (protein, Anti-N17 Adnectin - HIV fusion peptide inhibitor Combinectin) MGHHHHHHGVSDVPRDLEVVAATPTSLLISWDAPAVTVRYYRITYGETGGNSPVQEFTVPGSKSTATISGLKPGVDYTITVYAVTGRGESPASSKPISINYRTEIDGGGGSGGGGSGGGGSGGGGSRIEALIRAAQEQQEKNEAALRELYKWAS |  | 428
418 (protein, Anti-N17 Adnectin - HIV fusion peptide inhibitor Combinectin) MGHHHHHHGVSDVPRDLEVVAATPTSLLISWDAPAVTVRYYRITYGETGGNSPVQEFTVPGSKSTATISGLKPGVDYTITVYAVTGRGESPASSKPISINYRTEIDGGGGSGGGGSGGGGSGGGGSRIEALIRAAQEQQEKNEAALRELLKWAS |  | 218
419 (protein, Anti-N17 Adnectin - HIV fusion peptide inhibitor Combinectin) MGHHHHHHGVSDVPRDLEVVAATPTSLLISWDAPAVTVRYYRITYGETGGNSPVQEFTVPGSKSTATISGLKPGVDYTITVYAVTGRGESPASSKPISINYRTEIDGGGGSGGGGSGGGGSGGGGSRIEALIRAAQEQQEKNEAALRELQKWAS |  | > 1000
420 (protein, Anti-N17 Adnectin - HIV fusion peptide inhibitor Combinectin) MGHHHHHHGGSVSDVPRDLEVVAATPTSLLISWEYKVHPYRYYRITYGETGGNSPVQEFTVPSVLSTATISGLKPGVDYTITVYAVTYGDDSAPISINYRTEIDGGGGSGGGGSGGGGSGGGGSRIEALIRAAQEQQEKNEAALRELDKWAS |  | 8
421 (protein, Anti-N17 Adnectin - HIV fusion peptide inhibitor Combinectin) MGHHHHHHGVSDVPRDLEVVAATPTSLLISWVAGAEDYQYYRITYGETGGNSPVQEFTVPHDLVTATISGLKPGVDYTITVYAVTDMMHVEYTEHPISINYRTEIDGGGGSGGGGSGGGGSGGAIAEYAARIEALIRAAQEQQEKNEAALRELDKWAS |  | 50
422 (protein, Anti-N17 Adnectin - HIV fusion peptide inhibitor Combinectin) MGHHHHHHGVSDVPRDLEVVAATPTSLLISWKYKVHPYRYYRITYGETGGNSPVQEFTVPSVLSTATISGLKPGVDYTITVYAVTYGVNSLPISINYRTEIDGGGGSGGGGSGGGGSGGGGTEYEARIEALIRAAQEQQEKNEAALRELDK |  | 3
423 (protein, Anti-N17 Adnectin - HIV fusion peptide inhibitor Combinectin) MGHHHHHHGVSDVPRDLEVVAATPTSLLISWDAPAVTVRYYRITYGETGGNSPVQEFTVPGSKSTATISGLKPGVDYTITVYAVTGRGESPASSKPISINYRTEIDGGGGSGGGGSGGGGSGGGGSRIEALIRAAQEQQEKNEAALRELYKWTS |  | 122
424 (protein, Anti-N17 Adnectin - HIV fusion peptide inhibitor Combinectin) MGHHHHHHGGSVSDVPRDLEVVAATPTSLLISWEYKVNAYRYYRITYGETGGNSPVQEFTVPSVLSTATISGLKPGVDYTITVYAVTYGVDSDPISINYRTEIDGGGGSGGGGSGGGGSGGGGARIEEYAARIEALIRAAQEQQEKNEAALRELYKWAS |  | 39
425 (protein, Anti-N17 Adnectin - HIV fusion peptide inhibitor Combinectin) MGHHHHHHGGSVSDVPRDLEVVAATPTSLLISWEYKVNAYRYYRITYGETGGNSPVQEFTVPSVLSTATISGLKPGVDYTITVYAVTYGVDSDPISINYRTEIDGGGGSGGGGSGGGGSGGGGTIAEYAARIEALIRAAQEQQEKNEAALRELYKWAS |  | 523
